This is an account of results in paper PMC4476568.

In the assay the target is EGFP-labeled nuclear transport factor 2 (NTF2) (human) (UniProt P61970). The assay can be described thus: fluorescence fluctuation spectroscopy brightness analysis (MSQ with z-scan FFS); living E. coli cells in agarose; two-photon excitation at 1000 nm, ~1 mW, focus at the geometric centre of the cell; MSQ-curve fit to Eqs 14 and 22; normalized brightness against EGFP in solution, corrected for cell geometry.

Several values for one entry are separate records, joined by “and”; a condition that tells them apart may be missing. Equal values may be shown once.

In general, stoichiometry N refers to a count of units in the complex or per binding partner. For “EGFP-labeled nuclear transport factor 2 (NTF2) (from UniProt P61970 1-127) (natural protein; other documents disagree on this pair)”, the stoichiometry N is 2.1 and 1.94.
